Laboratory results: a protein production outcome set (Wang et al. 2014)

Assay: label from the status in PepcDB records

Row | Sequence | protein production
1 | MPGEPGISTRPFSHCERGTTTRCGEGDAHVTVVISHLLVPATVSTVVTSSSFDRLQALLQRPAVASISPALREALARAWQELPPAQTDNVPWALLGDTLDALALLAADEATLIAALLFDLPALRGAVTDLPWQPAERRVAVEGLLDGLDAADQVWALHAGREAGRNSEGLRRLLLSIIHDLRVVPILLARQLSRMRVADRLSKEQRHALAQLTRDIHAPLANRLGIWQVKWELEDLAFRHLEPDTYRRIAREVDETRVARERYLEAVKRTLSAALAQQGLRADVSGRPKHIYSIWRKMQKKRLSFDQLYDIRAVRVMVDDVAACYAALGAVHSLWAPVPSEFDDYIARPKANDYRSLHTAVVGPEGRTIEIQIRTHEMHAQAELGVAAHWKYKEGGKGGEKAFDRKILWMRQLLEQVQEGEHGELAGALDAELIEDRVYALTPKGEVIDLPQGATPLDFAYHVHTMVGHRCRGARVNDRIVPLTYRLRSGDRVEIMTAKEADPRRDWLLASNGFLASGRSRDKVRAWFHKLDRARNVQAGKDLLDRELKRLGLQHADLSVATRKFHADTIDDLYIQVALGDTGPNQVSRALLEAERAASQPAVPAPPRPTARREGLGKSKFTVEGVGNLLVQLARCCQPVAGEPIAGYLTRGRGITVHRTDCAALARLAAAHPQRVLPVEWGKAGTGYEVDVQVRAVDRRWLLKDITNLIAQEDAHVLEINSDNVRDTGRAQLRLRLKVSDYDQLSGLLGKLDALPGVSEVRRLG | failed
2 | MVVETIERSCEGSKRRHVNGGDIAVPCSGEECSNGDINVAPGVSAKRARVSREMTFEDIYGADALLNDDDDEDDDCDWEPVQAPMEFVKWCCVNCTMSNPGDMVHCCICGEHKESGILRHGYLASPFFKDTGLIEVEEKYGGSSSATSSTAVGFDERMLLHSEFEVKAQPHPERPDRLRAIAASLATAGVFPGRCLPINAREITKQELQMVHTSEHVDAVDTTSQLLYSYFTSDTYANEYSARAARLAAGLCADLATDIFTGRVKNGFALVRPPGHHAGVRHAMGFCLHNNAAVAALVAQAAGAKKVLIVDWDVHHGNGTQEIFEQNKSVLYISLHRHEGGNFYPGTGAADEVGSNGGEGYCVNVPWSCGGVGDKDYIFAFQHVVLPIASAFSPDFVIISAGFDAARGDPLGCCDVTPAGYSRMTQMLGDLCGGKMLVILEGGYNLRSISASATAVIKVLLGENPENELPIATTPSVAGLQTVLDVLNIQLEFWPSLAISYSKLLSELEARLIENKSEKSDEKEGCSGSDMVEMGTKEAFVQLSLGSYDFKIKVILESILPNPS | failed
3 | MSKNDKPLVSIGIPTYNRAESLKRAINSAVNQTYTNLEIIISDNCSIDETQQLCEELCKLDSRITYIRQAKNFGATNNFSFVLKKATGEYFMWLADDDWISENYIYDCQFFLQNNHQYLLCSGIAKYYLGDDIRMGENICLEENSPIERVKEYFNKVQDNGIFYGLYRKEAVLKLRIPSCFGGDWVFIACILLLGKATTLNTCVIHRVFQEKSTEDYAKEINSKYVLEKSYPYAFICFHFFSEIERTLILQNILTKQQKILLFLDILLTLMRRFGHLYSIEYGWLNIFCIRKKLISLLKIIIRNFRQSCLYFIDSLRTFIYNLKYTPQMYQLYASSKQKNSDLKKLAFFSPVKPIKSGISDYSEELIRFLCKKYQIFVFIDDSYTEKQCPNIENTFYLNHRLFPITSKILGIKKIVYQIGNNYYHNYMFKYINKNHGIVVLHDGIHMSGNVLQQPERHKIVVHSLSASTQVKSKYPNLSVNVISLLMSLPEENLKQDKNSLRHELNIDINTFVFGVFGIISEPKMVYELLLAFCHSFVQNENVAFLMVGYEIADSRVLNFLRANEDDKRLVCKLGVSMEDLYKFIKVTDACFNLRSTSRGETSSSLLRVMSCGIPVIASDIDSFSELPSDVLLKVSQNLSQDELSSILKKIYNEKDKLKEIGKKGKSYINSFHSPSKISDIYSTLIEIE | failed
4 | MRLLAVFVSSRLSPEDPLYARWVRYGEVLAEEGFGLACGGYQGGMEALARGVKAKGGLVVGVTAPAFFPERRGPNPFVDLELPAATLPQRIGRLLDLGAGYLALPGGVGTLAELVLAWNLLYLRRGVGRPLAVDPYWLGLLKAHGEIAPEDVGLLRVVADEEDLRRFLRSL | not failed
5 | MRKDEYRATLLEPNVWHIADYRGDSMYLVVGEEKALLVDTGMGEGDLKGFVRSITEKPVEVVLTHAHWDHIMQANQFEKVYLNHRDFQIIELFKINVNYENFLNVKEGDRFDLGGRTLEVIEVPGHTPGSIVLLDRENRLLFSGDSVGAGHTWMHLPGCLPLREYLKSLKKLKETDSFEKIYHGHLTGTQLKPFGPDYLDDLIKAVEGVIDGSLRGEP | failed
6 | MCDKDIYNNKEMIILNKQQVTKAIEKVLNSSKIGVLSTAHHNKPNSRYMVFYNDDLNLYTKTNVNSLKVEEIENNPDAHILLGYNETTNNSFVEIDATIEVVKDQKVIDWLWETQDKTFFNSKEDPELCVLKVIPRSIKLMNDDELDTPATIEL | not failed
7 | LQCEICGFTCRQKASLNWHQRKHAETVAALRFPCEFCGKRFEKPDSVAAHRSKSHPALLLAPQES | not failed
8 | MPARQSFTDLKNLVLCDIGNTRIHFAQNYQLFSSAKEDLKRLGIQKEIFYISVNEENEKALLNCYPNAKNIAGFFHLETDYVGLGIDRQMACLAVNNGVVVDAGSAITIDLIKEGKHLGGCILPGLAQYIHAYKKSAKILEQPFKALDSLEVLPKSTRDAVNYGMVLSVIACIQHLAKNQKIYLCGGDAKYLSAFLPHSVCKERLVFDGMEIALKKAGILECK | not failed
9 | MKITVIVPTYRRTKDLTRCLESLEKQSRPADEVLVVVRDTDVETWQFLETIAPHSLPLHTTTVRVPGVVAAMNAGLDIAQGDIIAFTDDDAAPHSNWLAQIETHFLAHEQIAGVGGRDWVYHGDRLEDGTCPVVGQVHWFGRVIGNHHIGIGKPREVDVLKGVNMSFRRSAVHGLRFDQRMLGTGAQVHFEVAFCLALKRAGWKLIYDPQIGVNHYLEHHHHHH | failed
10 | MSLTTMLEVAKRAGVSKATVSRVLSGNGYVSQETKDRVFQAVEESGYRPNLLARNLSAKSTQTLGLVVTNTLYHGIYFSELLFHAARMAEEKGRQLLLADGKHSAEEERQAIQYLLDLRCDAIMIYPRFLSVDEIDDIIDAHSQPIMVLNRRLRKNSSHSVWCDHKQTSFNAVAELINAGHQEIAFLTGSMDSPTSIERLAGYKDALAQHGIALNEKLIANGKWTPASGAEGVEMLLERGAKFSALVASNDDMAIGAMKALHERGVAVPEQVSVIGFDDIAIAPYTVPALSSVKIPVTEMIQEIIGRLIFMLDGGDFSPPKTFSGKLIRRDSLIAPSREGHHHHHH | not failed
11 | MEISNRLKSISEVMDRCEIAADIGTDHAYLPIYLIKNNLCKRFIASDVNAGPLKKAINNINKYKLEDKIECRLGSGLNVLKLEEVDVVVIAGMGGNLIRDIIEERLDIFKKLKYAVLQPVQNPEILREYLIKRGFNIIEEQLCIDESKYYEIIKVCYDSKIEDKDDVYYEIGDKLIDMKHPLLKEYINYKIRKYDKIYKNISEESLNALSRKNELSIKIRKLKELLSCL | failed
12 | MVETLGAIAPVFLIILVGFLLRRWKVLSDGFWLPAEKLTYFITFPALLAANLAGADLRGVAWAPVAAVSVGGIFLIAALMLAARSLLARRLAIGDPAFTSVFQGAIRPNTYIGLALATVLFGPFGVTLMALCIAIVVPLVNVLAVACMVRFGHGQSASLSAMARGIATNPLILACLVGIAMNIGGLGLPPVLGPALTILGSAALPIGLLAVGAGLSGVGLRRAAPALLVSSAAKLVLLPGLTLIGALALGMDAPTTALCVLYAALPCSQSSYVLARQMGGDATLMATAITVQTLLSGLSIPVFVLALV | failed
13 | MKEYLTRSNISYFSIGSGTPIIFLHGLSLDKQSTCLFFEPLSNVGQYQRIYLDLPGMGNSDPISPSTSDNVLETLIEAIEEIIGARRFILYGHSYGGYLAQAIAFHLKDQTLGVFLTCPVITADHSKRLTGKHINILEEDINPVENKEYFADFLSMNVIINNQAWHDYQNLIIPGLQKEDKTFIDQLQNNYSFTFEEKLKNINYQFPFKIMVGRNDQVVGYQEQLKLINHNENGEIVLLNRTGHNLMIDQREAVGFHFDLFLDELNSNN | not failed
14 | MGKNLKGKELGKGLYQRKDGRYEARIFVRGTGKTFSIYGTNLQHLKKERNAYLANVSPGIAGYDPRISVSKWYEKWMLIYVVHSVKATTLSNYVNGFERVREYIGYMRLIEVRPTHILDMIKGLEEEGYARTTVIQSLSVVRQLFKKAYGGKMIPIDPVADIKLPKEEPGEIPDEKIMQEQEDEKCLSIYDTHRFLESCKNTRYYELFFILLHTGLRIGEALALEWCDLDFKHEKLRVYKTLNRVTKYYDLKGNELPERYSTIQITTPKKSASNRKVPLTDAVIAAFMSWKEKQDRDKEKLGKNWGKPNILLKKYPGLIFTTSSGRSYLPSSAQTECRRIVGIVNKHEIALAEKENRDPNLMDVHPHIFRHTFVTRCIQSGMDAATVKKIAGHSDEKMTNYYTHIEEEHIDDEYELYIQKYGTET | failed
15 | MRILTLGLDGSGEFAFQSHAHTDHFANGRLIFATRPTIFLSHLRNSRYYIPVDFGKKFYIGDFKAKLYPSGHILGSSGIKIWLDEGTLYYTGDVKVKKLRTVERAKLPKADFLIIESTFGLPRFTFPDPRESEKVIIGIVEDLIDRGKVPTFMANPYGKAQEIIKILNVHGYSVSVDREIAKVSKFYMKFGVRLKFEKEGEVKVSSSKGISVSGFGRIKLSNHADFWELLEIVERVNPEKVFTVYGHAEAFAKILNGLGYEAKSIRRNQKLEVWLEHHHHHH | failed
16 | THANIQGLVKHVDYMAFSDQDTFLSVSNYAFDAFTFDFYASMLNAARLIIADEHTLLDTERLTDLILQENVNVMFATTALFNLLTDAGEDWMKGLRCILFGGERASVPHVRKALRIMGPGKLINCYGPTEGTVFATAHVVHDLPDSISSLPIGKPISN | failed
17 | MDHFSYRNTNKMVRTHVVVGSRPCCFSCAMEEKDPCVRKAWLELSLRDMHMIRDDTELALTLSFIWRYAMADPENPELPSLGVFECMTRLMKKGLEDVEWVMTGQNVYVPYYAAHIIGSYTMKKPDFATKAVESGVIAPLLELMRRKMSWVEQRVVVRALGHLASYETTFEAVAAYEDEVVRLAMEIAMTCVDVVYEEFVSVQEKEGRVRYHSDLLTRGLGGLEMEDRKAEEWASQLQCWSLHLLNCFAYKQKCISLICNKTFLKELSQMWGGLVNHTSPSGIGLIRILCYSKQGRRHVSGSREMILSLCNLSRSSDDWQYMGIDCLLLLLKDQATRYNVLEMSLFYLVDLVEVKALNVRKNLGDRITKVLLMHYCKTKKGCAYSHKAQKALKELWRNKVERRRRERKFMSKNQDFLRETSVVVYLIKQQANQLLHVGDIEGAIKCYTEAIGLCPLKLRRKRMNLYSERGECYLLLGDVDAAISDCTRALCLSEPVNSHGKSLWTRSRAYDIKGLSRESLMDCIMFVNGRCFRGNIPYYAAQMISKQMEATWLFEKARASKLGRMMLKEKFHLTGIFIFLYICMNISS | failed
18 | MISYIQTKIHHINFLHDSLFKNAFFLMLSSISTAGFGFIFWFLAAKFYSASDVGIATGIMSSMTLIVNLSRFGLDYSIIRFFPTHDKCKVFSTSTVISTLIALIFGLIFISGINSFSPELSFLRSPLYTLFYFISLTSSSVIFMAGIFFVAIREAEFQLYLNLIVGSRVLFVILFISLGAIGIFYAVGASFFIAFLISLVLILKSGTDLKLKIDRKFLTDSFNFSAGNFLTGLFMTVPNTLLPIMILNMHLVEQAAYYYIVFGIVSLLFMIPESISTSLFVEGSNGQSLKKTVIQSLVIIFLLLTPIALFFYLYGSLILGFIGQDYVAGGSGVFRLMIFASFFVVVNNVYFAIKRIQKDTKEITLLSGIIFILLIGLAFLLIPVLGIEGIGYAWIISYGTGALIILIQVFRKARFQNLLIKAM | failed
19 | MRSGRPLYWIFLLLAFSLLAVLVYVCVAVIPDLRNHPNARRSLKRVRSTLDPQREQRDASRRLDVADTPENRRQLAETLLARGDYAQAAEHYQGALRGLYRDDPHLMLGLAKAQFGLGQPQQTRQTLDALIAANPSFRSHDGHLLYARAVEGSGDTDAALHEYDTLAQGYPGEEARVRYAQLLQRIARNDQARAVYEQVLRHAAASPKHYQREQRAWVDLARKGLRELDTGA | failed
